This experiment has as its target T1, TNFR1 (Homo sapiens, UniProt P19438).
T1 chain: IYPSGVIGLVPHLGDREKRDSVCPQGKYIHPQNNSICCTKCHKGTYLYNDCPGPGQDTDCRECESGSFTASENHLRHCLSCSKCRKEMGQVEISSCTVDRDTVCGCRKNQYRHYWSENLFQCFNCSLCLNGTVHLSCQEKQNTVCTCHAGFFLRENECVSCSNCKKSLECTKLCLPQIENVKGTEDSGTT
Kind of experiment: yeast display SC50.

Residue numbers refer to the chain shown, from its start. Names may count otherwise.

This is an account of results in paper PMC12416549 (2024).

B1: A90I (designed binder)
chain: MTLQELLREEALRRAEAEAFRYALELLAEKFPEQKEYLLDLAEEIESQIRSLSGVDVEDVRKFLDKEWAWVKELLAEHPAELAEVEAARIARLAELRAEVEAKVAA
For the molecule B1, the “apparent Kd (screen)” value stood at 0.49 nM.

B2: A17I (designed binder)
chain: B1 chain with A17I, I90A
Regarding B2, the “apparent Kd (screen)” value amounted to 0.229 nM.

B3: F20T (designed binder)
chain: B1 chain with F20T, I90A
With B3, the “apparent Kd (screen)” value is 1.16 nM.

B4: E73Q (designed binder)
chain: B1 chain with E73Q, I90A
As to B4, the “apparent Kd (screen)” value worked out at 0.446 nM.

B5: K62D (designed binder)
chain: B1 chain with K62D, I90A
Consider B5, for which the “apparent Kd (screen)” value is 0.593 nM.

B6: Y22V (designed binder)
chain: B1 chain with Y22V, I90A
With B6, the “apparent Kd (screen)” value turned out to be 0.79 nM.

B7: V85W (designed binder)
chain: B1 chain with V85W, I90A
In the case of B7, the “apparent Kd (screen)” value was found to be 0.869 nM.

B8: E10G (designed binder)
chain: B1 chain with E10G, I90A
Consider B8, for which the “apparent Kd (screen)” value was 1.4 nM.

B9: V55T (designed binder)
chain: B1 chain with V55T, I90A
Turning to B9, the “apparent Kd (screen)” value came out at 0.718 nM.

B10: L6E (designed binder)
chain: B1 chain with L6E, I90A
Take B10: the “apparent Kd (screen)” value is 8.56 nM.

B11: K35F (designed binder)
chain: B1 chain with K35F, I90A
Take B11: the “apparent Kd (screen)” value stood at 0.539 nM.

B12: A98E (designed binder)
chain: B1 chain with I90A, A98E
For B12, the “apparent Kd (screen)” value came out at 0.869 nM.

B13: L7C (designed binder)
chain: B1 chain with L7C, I90A
Turning to B13, the “apparent Kd (screen)” value is 8.56 nM.

B14: P32E (designed binder)
chain: B1 chain with P32E, I90A
For B14, the “apparent Kd (screen)” value came out at 0.49 nM.

B15: E5N (designed binder)
chain: B1 chain with E5N, I90A
Consider B15, for which the “apparent Kd (screen)” value came out at 0.446 nM.

B16: A106I (designed binder)
chain: B1 chain with I90A, A106I
On to B16, for which the “apparent Kd (screen)” value was found to be 0.593 nM.

B17: A90G (designed binder)
chain: B1 chain with I90G
As to B17, the “apparent Kd (screen)” value amounted to 0.653 nM.

B18: E10H (designed binder)
chain: B1 chain with E10H, I90A
On to B18, for which the “apparent Kd (screen)” value was 3.3 nM.

B19: A80T (designed binder)
chain: B1 chain with A80T, I90A
As for B19, the “apparent Kd (screen)” value worked out at 0.718 nM.

B20: F63E (designed binder)
chain: B1 chain with F63E, I90A
Turning to B20, the “apparent Kd (screen)” value was determined as 0.593 nM.

B21: D40M (designed binder)
chain: B1 chain with D40M, I90A
For B21, the “apparent Kd (screen)” value worked out at 0.593 nM.

B22: L6H (designed binder)
chain: B1 chain with L6H, I90A
For B22, the “apparent Kd (screen)” value is 8.56 nM.

B23: R89F (designed binder)
chain: B1 chain with R89F, I90A
Consider B23, for which the “apparent Kd (screen)” value was determined as 1.05 nM.

B24: E73D (designed binder)
chain: B1 chain with E73D, I90A
B24: the “apparent Kd (screen)” value turned out to be 0.539 nM.

B25: R89V (designed binder)
chain: B1 chain with R89V, I90A
In the case of B25, the “apparent Kd (screen)” value is 0.79 nM.

B26: Y22D (designed binder)
chain: B1 chain with Y22D, I90A
As for B26, the “apparent Kd (screen)” value is 0.446 nM.

B27: R50I (designed binder)
chain: B1 chain with R50I, I90A
Regarding B27, the “apparent Kd (screen)” value came out at 0.956 nM.

B28: V60Q (designed binder)
chain: B1 chain with V60Q, I90A
For the molecule B28, the “apparent Kd (screen)” value is 0.718 nM.

B29: L41K (designed binder)
chain: B1 chain with L41K, I90A
For the molecule B29, the “apparent Kd (screen)” value was 11.4 nM.

B30: V60A (designed binder)
chain: B1 chain with V60A, I90A
For the molecule B30, the “apparent Kd (screen)” value is 0.653 nM.

B31: L75A (designed binder)
chain: B1 chain with L75A, I90A
For the molecule B31, the “apparent Kd (screen)” value was found to be 0.653 nM.

B32: A80K (designed binder)
chain: B1 chain with A80K, I90A
For the molecule B32, the “apparent Kd (screen)” value was found to be 0.718 nM.

B33: Y37N (designed binder)
chain: B1 chain with Y37N, I90A
In the case of B33, the “apparent Kd (screen)” value was determined as 0.869 nM.

B34: A83F (designed binder)
chain: B1 chain with A83F, I90A
As for B34, the “apparent Kd (screen)” value is 0.593 nM.

B35: E101N (designed binder)
chain: B1 chain with I90A, E101N
Regarding B35, the “apparent Kd (screen)” value worked out at 0.718 nM.

B36: A23W (designed binder)
chain: B1 chain with A23W, I90A
As to B36, the “apparent Kd (screen)” value was determined as 0.869 nM.

B37: R92N (designed binder)
chain: B1 chain with I90A, R92N
On to B37, for which the “apparent Kd (screen)” value was 0.718 nM.

B38: Q34I (designed binder)
chain: B1 chain with Q34I, I90A
Consider B38, for which the “apparent Kd (screen)” value was determined as 0.593 nM.

B39: L38R (designed binder)
chain: B1 chain with L38R, I90A
For B39, the “apparent Kd (screen)” value was 4.39 nM.

B40: D56G (designed binder)
chain: B1 chain with D56G, I90A
For B40, the “apparent Kd (screen)” value worked out at 0.956 nM.

B41: I45L (designed binder)
chain: B1 chain with I45L, I90A
For B41, the “apparent Kd (screen)” value turned out to be 0.539 nM.

B42: K62N (designed binder)
chain: B1 chain with K62N, I90A
For B42, the “apparent Kd (screen)” value amounted to 0.49 nM.

B43: V55H (designed binder)
chain: B1 chain with V55H, I90A
Consider B43, for which the “apparent Kd (screen)” value was 1.16 nM.

B44: S51V (designed binder)
chain: B1 chain with S51V, I90A
B44: the “apparent Kd (screen)” value came to 2.05 nM.

B45: K30D (designed binder)
chain: B1 chain with K30D, I90A
For the molecule B45, the “apparent Kd (screen)” value is 1.27 nM.

B46: L41D (designed binder)
chain: B1 chain with L41D, I90A
For B46, the “apparent Kd (screen)” value stood at 1.27 nM.

B47: E36F (designed binder)
chain: B1 chain with E36F, I90A
With B47, the “apparent Kd (screen)” value is 0.539 nM.

B48: R50P (designed binder)
chain: B1 chain with R50P, I90A
For B48, the “apparent Kd (screen)” value amounted to 2.25 nM.

B49: E101R (designed binder)
chain: B1 chain with I90A, E101R
Consider B49, for which the “apparent Kd (screen)” value is 0.49 nM.

B50: V100K (designed binder)
chain: B1 chain with I90A, V100K
In the case of B50, the “apparent Kd (screen)” value is 0.49 nM.

B51: L52H (designed binder)
chain: B1 chain with L52H, I90A
For the molecule B51, the “apparent Kd (screen)” value amounted to 6.43 nM.

B52: P32L (designed binder)
chain: B1 chain with P32L, I90A
On to B52, for which the “apparent Kd (screen)” value came out at 0.593 nM.

B53: L3R (designed binder)
chain: B1 chain with L3R, I90A
Take B53: the “apparent Kd (screen)” value was 2.48 nM.

B54: L75M (designed binder)
chain: B1 chain with L75M, I90A
Consider B54, for which the “apparent Kd (screen)” value was 1.54 nM.

B55: A23C (designed binder)
chain: B1 chain with A23C, I90A
For the molecule B55, the “apparent Kd (screen)” value turned out to be 0.446 nM.
